From paper PMC6994217 (Science Advances, 2020)
Square brackets hold non-standard residues; d marks the D form. pY = N[C@@H](Cc1ccc(OP(=O)(O)O)cc1)C(=O)O

B1: PD-1 ITSM phosphopeptide, Ac-EQTE(pY)ATIVFP-NH2 (peptide)
peptide: Ac-EQTE[pY]ATIVFP-NH2
SMILES: CC[C@H](C)[C@H](NC(=O)[C@@H](NC(=O)[C@H](C)NC(=O)[C@H](Cc1ccc(OP(=O)(O)O)cc1)NC(=O)[C@H](CCC(=O)O)NC(=O)[C@@H](NC(=O)[C@H](CCC(N)=O)NC(=O)[C@H](CCC(=O)O)NC(C)=O)[C@@H](C)O)[C@@H](C)O)C(=O)N[C@H](C(=O)N[C@@H](Cc1ccccc1)C(=O)N1CCC[C@H]1C(N)=O)C(C)C
B2: PD-1 ITIM phosphopeptide, Ac-FSVD(pY)GELDFQ-NH2 (peptide)
peptide: Ac-FSVD[pY]GELDFQ-NH2
SMILES: CC(=O)N[C@@H](Cc1ccccc1)C(=O)N[C@@H](CO)C(=O)N[C@H](C(=O)N[C@@H](CC(=O)O)C(=O)N[C@@H](Cc1ccc(OP(=O)(O)O)cc1)C(=O)NCC(=O)N[C@@H](CCC(=O)O)C(=O)N[C@@H](CC(C)C)C(=O)N[C@@H](CC(=O)O)C(=O)N[C@@H](Cc1ccccc1)C(=O)N[C@@H](CCC(N)=O)C(N)=O)C(C)C

Legend:
[1] = biological target: SHP2^1–220 (tandem SH2, both SH2 domains) (human) (UniProt Q06124); test: NMR DOSY
[2] = biological target: SHP2^1–220 (tandem SH2, both SH2 domains) (human) (UniProt Q06124); test: SEC-MALS
[3] = biological target: T1, C-terminal SH2 domain of SHP2 (SHP2^106–220) (human, UniProt Q06124-2 106-220); test: ITC
T1 sequence: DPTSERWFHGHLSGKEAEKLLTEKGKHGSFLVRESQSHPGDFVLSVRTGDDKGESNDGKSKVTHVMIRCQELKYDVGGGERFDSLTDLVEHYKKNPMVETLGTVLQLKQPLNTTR

[4] = biological target: T2, N-terminal SH2 domain of SHP2 (SHP2^1–105) (human, UniProt Q06124-2 1-105); test: ITC
T2 sequence: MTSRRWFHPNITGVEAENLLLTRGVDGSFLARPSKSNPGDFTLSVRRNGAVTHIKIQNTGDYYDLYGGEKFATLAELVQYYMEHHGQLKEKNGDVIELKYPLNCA

Molecule	stoichiometry N (peptide per protein) [1]	stoichiometry N (peptide per protein) [2]	Kd [3]	Kd [4]
diphosphorylated bidentate peptide ITIM-[dPEG4]2-ITSM, Ac-FSVD(pY)GELDFQ-(dPEG4)-(dPEG4)-EQTE(pY)ATIVFP-NH2	1			
diphosphorylated bidentate peptide ITSM-[dPEG4]2-ITSM, Ac-EQTE(pY)ATIVFP-(dPEG4)-(dPEG4)-EQTE(pY)ATIVFP-NH2		1		
B1			13 nM	167 nM
B2			26400 nM	1900 nM
